Target: T1, TUT7 RNA-binding region (Homo sapiens, UniProt Q5VYS8 1362-1452)
T1 sequence: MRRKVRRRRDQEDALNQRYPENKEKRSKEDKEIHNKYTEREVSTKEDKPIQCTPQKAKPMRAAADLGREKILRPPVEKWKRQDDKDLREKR
Test: fluorescence polarization; FP: 45 mM Tris-HCl pH 8.0, 90 mM NaCl, 0.2% Tween-20, 22 C, 60 min, 30 ul
Conditions: protein: recombinant; tags: GST fusion (expressed in BL21 codon plus); label: 5' Cy5

B1: top scoring Hamiltonian sequence for TUT7 (ssRNA)
RNA: GCAGUCUUAACGCUGCCUUA
  binding result: binds

From article PMC6023938, “Global pairwise RNA interaction landscapes reveal core features of protein recognition”
